In article PMC9713717:

Target: T1, human NKCC1 (sodium-potassium-chloride transporter NKCC1, SLC12A2) (human), P55011
T1 chain: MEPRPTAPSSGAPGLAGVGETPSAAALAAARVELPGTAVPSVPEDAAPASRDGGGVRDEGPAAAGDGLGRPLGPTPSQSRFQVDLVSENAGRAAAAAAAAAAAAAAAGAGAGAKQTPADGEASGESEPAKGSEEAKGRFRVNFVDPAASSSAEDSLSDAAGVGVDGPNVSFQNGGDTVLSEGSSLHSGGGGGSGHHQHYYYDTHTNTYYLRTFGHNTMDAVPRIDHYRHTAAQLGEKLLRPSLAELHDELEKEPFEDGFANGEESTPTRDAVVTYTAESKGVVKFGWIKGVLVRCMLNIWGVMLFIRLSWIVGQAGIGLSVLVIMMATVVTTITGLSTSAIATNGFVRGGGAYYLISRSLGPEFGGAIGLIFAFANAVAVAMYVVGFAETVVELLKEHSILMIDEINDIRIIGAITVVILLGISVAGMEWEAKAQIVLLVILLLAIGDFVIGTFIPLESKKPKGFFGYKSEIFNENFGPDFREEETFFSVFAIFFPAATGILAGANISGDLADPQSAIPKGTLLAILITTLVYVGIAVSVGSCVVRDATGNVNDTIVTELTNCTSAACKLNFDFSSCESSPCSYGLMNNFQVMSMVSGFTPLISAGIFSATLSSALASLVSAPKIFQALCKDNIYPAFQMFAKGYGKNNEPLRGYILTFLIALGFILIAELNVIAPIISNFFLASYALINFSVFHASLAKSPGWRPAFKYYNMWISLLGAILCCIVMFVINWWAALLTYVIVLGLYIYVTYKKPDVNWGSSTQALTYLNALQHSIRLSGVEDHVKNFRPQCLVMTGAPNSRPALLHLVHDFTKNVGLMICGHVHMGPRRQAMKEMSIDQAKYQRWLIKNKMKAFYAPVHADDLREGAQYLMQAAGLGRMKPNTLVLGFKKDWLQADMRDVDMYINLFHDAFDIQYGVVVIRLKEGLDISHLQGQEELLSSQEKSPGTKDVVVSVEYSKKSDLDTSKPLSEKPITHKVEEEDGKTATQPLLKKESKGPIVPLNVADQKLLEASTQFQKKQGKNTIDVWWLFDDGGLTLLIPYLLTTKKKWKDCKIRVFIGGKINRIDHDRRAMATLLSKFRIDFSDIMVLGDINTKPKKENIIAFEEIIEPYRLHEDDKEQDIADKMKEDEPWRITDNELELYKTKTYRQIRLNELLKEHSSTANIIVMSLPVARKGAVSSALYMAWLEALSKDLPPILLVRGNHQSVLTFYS
Assay: cryo-EM structure
Details: remark: other sources report otherwise

B1: human NKCC1 (sodium-potassium-chloride transporter NKCC1, SLC12A2), P55011 1-1212 (natural protein)
chain: T1 chain
  stoichiometry N: 2
